Measurements: the supplement of paper PMC9233669
Fewer inactive variants are shown than the library holds.

Assays:
biotinyl-Val-oxazolone = test: self-aminoacylation, catalytic enhancement (BVO) (fold over background); higher = more active; k-Seq, kA / k0A0; sequences stand for … in GGGAAUGGAUCCACAUCUACGAAUUC…UUCACUGCAGACUUGACGAAGCUG
Method in brief: (§1)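 Catalytic enhancement equals the median kA over the uncatalyzed rate, the latter read from the low-activity peak of a bimodal Gaussian fit. Values of kA came from fitting each sequence's fraction reacted to a pseudo-first-order model, with 1000 bootstraps. Reacted RNA was captured with streptavidin and quantified by triplicate qPCR and Illumina sequencing after 90 minutes at room temperature with 2–1250 μM biotinyl-aminoacyl-oxazolone and 0.43 μM mutagenized RNA pools bearing a 21-nt variable region.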

biotinyl-Trp-oxazolone = test: self-aminoacylation, catalytic enhancement (BWO) (fold over background); higher = more active; k-Seq, kA / k0A0; sequences stand for … in GGGAAUGGAUCCACAUCUACGAAUUC…UUCACUGCAGACUUGACGAAGCUG
Method in brief: as §1

biotinyl-Phe-oxazolone = test: self-aminoacylation, catalytic enhancement (BFO) (fold over background); higher = more active; k-Seq, kA / k0A0; sequences stand for … in GGGAAUGGAUCCACAUCUACGAAUUC…UUCACUGCAGACUUGACGAAGCUG
Method in brief: as §1

biotinyl-Met-oxazolone = test: self-aminoacylation, catalytic enhancement (BMO) (fold over background); higher = more active; k-Seq, kA / k0A0; sequences stand for … in GGGAAUGGAUCCACAUCUACGAAUUC…UUCACUGCAGACUUGACGAAGCUG
Method in brief: as §1

biotinyl-Ile-oxazolone = test: self-aminoacylation, catalytic enhancement (BIO) (fold over background); higher = more active; k-Seq, kA / k0A0; sequences stand for … in GGGAAUGGAUCCACAUCUACGAAUUC…UUCACUGCAGACUUGACGAAGCUG
Method in brief: as §1

biotinyl-Leu-oxazolone = test: self-aminoacylation, catalytic enhancement (BLO) (fold over background); higher = more active; k-Seq, kA / k0A0; sequences stand for … in GGGAAUGGAUCCACAUCUACGAAUUC…UUCACUGCAGACUUGACGAAGCUG
Method in brief: as §1

Sequence	self-aminoacylation (biotinyl-Val-oxazolone)	self-aminoacylation (biotinyl-Trp-oxazolone)	self-aminoacylation (biotinyl-Phe-oxazolone)	self-aminoacylation (biotinyl-Met-oxazolone)	self-aminoacylation (biotinyl-Ile-oxazolone)	self-aminoacylation (biotinyl-Leu-oxazolone)
AUUCACCUAGGUGAUCGGGUA [Fam2.2 aminoacylation ribozyme variant]	2.48	3.59	9.83	3.18	2.67	3.14
AUUGCCCUGGUCAUCGAGUGG [Fam2.1 aminoacylation ribozyme variant]	10.9	29.8	197	30.9	9.44	29.4
AAGUUUGCAAAUUGUCGCAAG [Fam3.1 aminoacylation ribozyme variant]	1.19	1.53	0.968	1.47	1.26	1.57
AAGUUUACUAAUAGUCGCAAA [Fam3.1 aminoacylation ribozyme variant]	1.61	2.06	2.01	1.44	1.95	1.35
CCACACCUCCAGCAAUCGGUC [Fam1B.1 aminoacylation ribozyme variant]	1.4	1.19	1.64	1.27	1.69	1.15
AAGUUUGCUAAUAGUGGUAAG [Fam3.1 aminoacylation ribozyme variant]	0.801	0.724	0.868	0.769	0.992	0.788
CCACACUUCAAGCAUUAGGUC [Fam1B.1 aminoacylation ribozyme variant]	0.645	0.516	0.818	0.399	0.501	0.504
CGACACUUCAAGCAAACGGUC [Fam1B.1 aminoacylation ribozyme variant]	0.76	0.612	0.979	0.687	0.814	0.537
AUUACCCUGAUUAUCGAGUGA [Fam2.1 aminoacylation ribozyme variant]	7.28	22	117	17.9	7.51	17.4
AUCACCCUGGUCCUCGAGUGA [Fam2.1 aminoacylation ribozyme variant]	4.54	7.28	51.6	6.62	4.01	8.29
CUACUUCACACAAUCGGCCUG [Fam1A.1 aminoacylation ribozyme variant]	1.86	1.72	0.896	1.75	1.69	1.75
AUGCACCUAGGUCAUCGUGUG [Fam2.2 aminoacylation ribozyme variant]	1.04	0.926	4.56	1.18	1.04	0.934
CUACUUCAAACAAUAGGUCUG [Fam1A.1 aminoacylation ribozyme variant]	0.817	0.617	1.11	0.696	0.813	0.681
CCACACUUCACGCCAUCGGUC [Fam1B.1 aminoacylation ribozyme variant]	2.13	2.05	1.28	1.31	1.59	1.51
AUUCACCCAGAUCAUCGGGUG [Fam2.2 aminoacylation ribozyme variant]	2.26	1.84	7.26	1.82	1.85	2.43
CUACUUCAUAAAAUCGGUCUG [Fam1A.1 aminoacylation ribozyme variant]	0.641	0.389	0.567	0.699	0.656	0.622
CAACUUCAUACAAUCGGUCUG [Fam1A.1 aminoacylation ribozyme variant]	0.962	0.771	1.65	0.861	1.06	1.04
AUUACCCUCGUCCUCGAGUGA [Fam2.1 aminoacylation ribozyme variant]	2.4	6.18	34.7	4.67	2.48	5.49
AAGUUGGAUAAUAGUCGCAAG [Fam3.1 aminoacylation ribozyme variant]	1.01	1.12	1.31	1.11	1.17	0.984
CCACAUUUCAAGCAACCGGUC [Fam1B.1 aminoacylation ribozyme variant]	1.64	1.34	1.11	1.09	1.53	1.11
GCACACUUCAGGCAAUCGGUC [Fam1B.1 aminoacylation ribozyme variant]	2.42	2.39	3.06	2.04	2.21	1.67
AAAUUUGCUAAUAGUCGCACG [Fam3.1 aminoacylation ribozyme variant]	1.72	1.81	1.47	1.38	1.58	1.42
AUUUCCGUGGUCAUCGAGUGA [Fam2.1 aminoacylation ribozyme variant]	4.26	8.19	52.8	6.67	3.67	6.35
AAGUUUGCUAAUAGUCACAAA [Fam3.1 aminoacylation ribozyme variant]	1.09	1.15	1.34	1.32	1.21	1.22
UCACACUUCAUGCAAUCGGUC [Fam1B.1 aminoacylation ribozyme variant]	0.887	0.656	0.632	0.793	0.85	0.736
AUUGACCUAGAUCAUCGGGUG [Fam2.2 aminoacylation ribozyme variant]	2.54	3.51	18	3.5	2.54	3.59

Sequence	self-aminoacylation (biotinyl-Val-oxazolone)	self-aminoacylation (biotinyl-Trp-oxazolone)	self-aminoacylation (biotinyl-Phe-oxazolone)	self-aminoacylation (biotinyl-Met-oxazolone)	self-aminoacylation (biotinyl-Ile-oxazolone)	self-aminoacylation (biotinyl-Leu-oxazolone)
AUUCACCCAAGUCAUCGGGUG [Fam2.2 aminoacylation ribozyme variant]	5.86	10.1	92.9	11	5.59	14.8
AUUCACCUAGUUCAUCGGGUC [Fam2.2 aminoacylation ribozyme variant]	1.17	0.582	0.49	0.906	0.996	0.903
AUUCACCUAGUACAUCGGGUG [Fam2.2 aminoacylation ribozyme variant]	1.65	2.21	10.4	2.21	1.55	2.71
CCACACUUCAAGUAAUCCGUC [Fam1B.1 aminoacylation ribozyme variant]	1.06	1.16	0.9	1.1	1.06	0.839
AUUACCCAGGUCAUUGAGUGA [Fam2.1 aminoacylation ribozyme variant]	4.36	10.4	53.1	8.2	4.59	9.04
AUCACCCUGGGCAUCGAGUGA [Fam2.1 aminoacylation ribozyme variant]	5.3	11.2	69.7	10.6	4.64	13.1
AUUCACCUAGAUCAUUGGGUG [Fam2.2 aminoacylation ribozyme variant]	1.91	3.54	18	3.71	2.15	3.94
CUACUUCAGACAAUCGGUCUC [Fam1A.1 aminoacylation ribozyme variant]	0.977	0.825	1.09	0.857	0.936	0.895
AGUCACCUAGGUCCUCGGGUG [Fam2.2 aminoacylation ribozyme variant]	4.64	9.19	37.5	6.34	5.66	6.54
AUUACCCUGGUCGUAGAGUGA [Fam2.1 aminoacylation ribozyme variant]	1.09	2.26	3.08	1.28	1.17	1.84
AUUCCCCUGGUCAUCGAGGGA [Fam2.1 aminoacylation ribozyme variant]	1.55	1.99	1.62	1.29	1.42	1.56
AUGUUUGCUAGUAGUCGCAAG [Fam3.1 aminoacylation ribozyme variant]	0.827	0.975	1.15	1.15	0.957	0.911
ACACACUUCAAGCACUCGGUC [Fam1B.1 aminoacylation ribozyme variant]	1.3	1.77	1.49	1.42	1.44	1.62
AUUGACCUAGGUCAUCUGGUG [Fam2.2 aminoacylation ribozyme variant]	1.7	2.27	8.46	1.9	1.83	2.42
AAGUUUGCUAAUAAUCGCGAG [Fam3.1 aminoacylation ribozyme variant]	0.808	1.47	1.24	0.863	0.983	0.744
AUUCACUUAGGUCAUCGGGUC [Fam2.2 aminoacylation ribozyme variant]	1.2	1.06	0.826	1.22	1.04	0.969
AUUACCCUGGUCAGCGCGUGA [Fam2.1 aminoacylation ribozyme variant]	3.95	6.87	35.3	5.84	3.45	6.5
CUACUUCAAACUAUCGGUAUG [Fam1A.1 aminoacylation ribozyme variant]	0.813	0.665	0.842	0.557	0.715	0.601
CUACUUCAAACUAUCGGUCUA [Fam1A.1 aminoacylation ribozyme variant]	0.912	0.62	1.08	0.729	0.944	0.696
AUUACCCUGGUAAUGGAGUGA [Fam2.1 aminoacylation ribozyme variant]	3.73	9.08	55.9	8.43	3.32	8.53
CUUCUUCAAACAAUCGGUCAG [Fam1A.1 aminoacylation ribozyme variant]	0.734	2.59	5.5	0.655	0.818	0.623
AUCCACUUAGGUCAUCGGGUG [Fam2.2 aminoacylation ribozyme variant]	4.85	7.26	63.8	6.88	5.19	8.6
CCUCACUUCAAGCAAUCGGUC [Fam1B.1 aminoacylation ribozyme variant]	1.21	22.4	55.7	1.07	1.07	1.58
CCAGACUUCAAGCAAUCGAUC [Fam1B.1 aminoacylation ribozyme variant]	0.778	0.639	1.51	0.559	0.714	0.614
AUUCACCUAGGUCAUCGGCUU [Fam2.2 aminoacylation ribozyme variant]	2.02	3.27	6.3	2.26	2.1	2.3
